# Test results taken from patent US20260092267.
# Test system: H3K4 histone substrate (histone H3)
substance,measurement,value
SETD7-dCas9 protein (purified from pET-SETD7-dCas9-NLS-6×His),in vitro H3K4 methylation activity,the SETD7-dCas9 protein was confirmed to have H3K4 methylation activity with H3K4 histone substrate through in vitro analysis
